Reference: patent USRE47150 (Bayer, dated 2018)

T1: human tissue factor pathway inhibitor (TFPI) (human, UniProt P10646 29-304, limits assumed)
T1 construct: bought; also called hTFPI; human TFPI
T1 sequence (looked up): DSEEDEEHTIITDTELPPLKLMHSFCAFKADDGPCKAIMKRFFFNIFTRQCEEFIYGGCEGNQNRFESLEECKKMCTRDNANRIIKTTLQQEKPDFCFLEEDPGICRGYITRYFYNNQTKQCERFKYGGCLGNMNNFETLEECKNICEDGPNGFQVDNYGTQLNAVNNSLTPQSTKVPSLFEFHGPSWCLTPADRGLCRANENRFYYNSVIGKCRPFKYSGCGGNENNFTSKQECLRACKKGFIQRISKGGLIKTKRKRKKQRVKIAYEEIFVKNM

T2: mouse tissue factor pathway inhibitor (TFPI) (mouse, UniProt O54819 29-289, limits assumed)
T2 construct: bought; also called mTFPI; murine TFPI
T2 sequence (looked up): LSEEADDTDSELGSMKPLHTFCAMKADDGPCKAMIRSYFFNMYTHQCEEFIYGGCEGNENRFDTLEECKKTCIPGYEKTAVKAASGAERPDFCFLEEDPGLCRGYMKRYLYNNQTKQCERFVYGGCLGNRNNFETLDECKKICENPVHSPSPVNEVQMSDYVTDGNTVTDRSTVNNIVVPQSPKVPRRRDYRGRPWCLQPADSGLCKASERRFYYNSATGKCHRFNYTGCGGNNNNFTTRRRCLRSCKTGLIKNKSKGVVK


Tests used:
[1] = target: T1, human tissue factor pathway inhibitor …; test: competitive ELISA
[2] = target: T2, mouse tissue factor pathway inhibitor …; test: competitive ELISA
[3] = target: T1, human tissue factor pathway inhibitor …; test: SPR, TFPI immobilized
[4] = target: T2, mouse tissue factor pathway inhibitor …; test: SPR, TFPI immobilized

Binder | variant/HC_D62R [1] | variant/HC_D62R [2] | KD fold improvement [3] | Kd [3] | koff [3] | kon [3] | KD fold improvement [4] | Kd [4] | koff [4] | kon [4]
B18.5 (4B7 HC N32D+D62Q+Y112D/LC F31I+D33F+N35I) (Fab, V domains shown) VH: QVQLQQSGPGLVKPSQTLSLTCAISGDSVSSDSAAWSWIRQSPGRGLEWLGIIYKRSKWYNQYAVSVKSRITINPDTSKNQFSLQLNSVTPEDTAVYYCARWHSDKHWGFDDWGQGTLVTVSS VL: DIVMTQSPLSLPVTPGEPASISCRSSQSLVISFGITYLNWYLQKPGQSPQLLIYKGSNRASGVPDRFSGSGSGTDFTLKISRVEAEDVGVYYCQQYDSYPLTFGQGTKVEIKR | 22.4 ratio | 14 ratio | 428 fold | 0.026 nM | 3.18e-05 s⁻¹ | 1.23e+06 M⁻¹ s⁻¹ | 139 fold | 0.395 nM | 0.00043 s⁻¹ | 1.09e+06 M⁻¹ s⁻¹
B32.5 (4B7 HC D62R+Y112D/LC D33F+N35I) (Fab, V domains shown) VH: QVQLQQSGPGLVKPSQTLSLTCAISGDSVSSNSAAWSWIRQSPGRGLEWLGIIYKRSKWYNRYAVSVKSRITINPDTSKNQFSLQLNSVTPEDTAVYYCARWHSDKHWGFDDWGQGTLVTVSS VL: DIVMTQSPLSLPVTPGEPASISCRSSQSLVFSFGITYLNWYLQKPGQSPQLLIYKGSNRASGVPDRFSGSGSGTDFTLKISRVEAEDVGVYYCQQYDSYPLTFGQGTKVEIKR | 20.3 ratio | 20.8 ratio | 749 fold | 0.0148 nM | 3.19e-05 s⁻¹ | 2.15e+06 M⁻¹ s⁻¹ | 528 fold | 0.104 nM | 0.000468 s⁻¹ | 4.52e+06 M⁻¹ s⁻¹
B41.2 (4B7 HC N32D+D62R+Y112D/LC S32R+D33F+N35I) (Fab, V domains shown) VH: QVQLQQSGPGLVKPSQTLSLTCAISGDSVSSDSAAWSWIRQSPGRGLEWLGIIYKRSKWYNRYAVSVKSRITINPDTSKNQFSLQLNSVTPEDTAVYYCARWHSDKHWGFDDWGQGTLVTVSS VL: DIVMTQSPLSLPVTPGEPASISCRSSQSLVFRFGITYLNWYLQKPGQSPQLLIYKGSNRASGVPDRFSGSGSGTDFTLKISRVEAEDVGVYYCQQYDSYPLTFGQGTKVEIKR | 29.7 ratio | 42 ratio | 1550 fold | 0.00716 nM | 2.47e-05 s⁻¹ | 3.46e+06 M⁻¹ s⁻¹ | 1060 fold | 0.0519 nM | 0.000245 s⁻¹ | 4.73e+06 M⁻¹ s⁻¹
gB9.7 (4B7 HC Q1E+N32D+G44S+K55Y+D62R+Y112D/LC S32R+N35I) (Fab, V domains shown) VH: EVQLQQSGPGLVKPSQTLSLTCAISGDSVSSDSAAWSWIRQSPSRGLEWLGIIYYRSKWYNRYAVSVKSRITINPDTSKNQFSLQLNSVTPEDTAVYYCARWHSDKHWGFDDWGQGTLVTVSS VL: DIVMTQSPLSLPVTPGEPASISCRSSQSLVFRDGITYLNWYLQKPGQSPQLLIYKGSNRASGVPDRFSGSGSGTDFTLKISRVEAEDVGVYYCQQYDSYPLTFGQGTKVEIKR | 22.6 ratio | 25.5 ratio | 1090 fold | 0.0102 nM | 9.55e-06 s⁻¹ | 938000 M⁻¹ s⁻¹ | 275 fold | 0.199 nM | 0.000185 s⁻¹ | 929000 M⁻¹ s⁻¹
B27.1 (4B7 HC N32D+D62R+Y112D/LC N35T+D97T) (Fab, V domains shown) VH: QVQLQQSGPGLVKPSQTLSLTCAISGDSVSSDSAAWSWIRQSPGRGLEWLGIIYKRSKWYNRYAVSVKSRITINPDTSKNQFSLQLNSVTPEDTAVYYCARWHSDKHWGFDDWGQGTLVTVSS VL: DIVMTQSPLSLPVTPGEPASISCRSSQSLVFSDGTTYLNWYLQKPGQSPQLLIYKGSNRASGVPDRFSGSGSGTDFTLKISRVEAEDVGVYYCQQYTSYPLTFGQGTKVEIKR | 26 ratio | 9.5 ratio | 875 fold | 0.0127 nM | 3.53e-05 s⁻¹ | 2.78e+06 M⁻¹ s⁻¹ | 299 fold | 0.183 nM | 0.000742 s⁻¹ | 4.06e+06 M⁻¹ s⁻¹
